Results published in IntAct's records for PubMed 29039417.

B1: BBSome complex member BBS2 (Homo sapiens), Q9BXC9 (parent)
chain: MLLPVFTLKLRHKISPRMVAIGRYDGTHPCLAAATQTGKVFIHNPHTRNQHVSASRVFQSPLESDVSLLSINQAVSCLTAGVLNPELGYDALLVGTQTNLLAYDVYNNSDLFYREVADGANAIVLGTLGDISSPLAIIGGNCALQGFNHEGSDLFWTVTGDNVNSLALCDFDGDGKKELLVGSEDFDIRVFKEDEIVAEMTETEIVTSLCPMYGSRFGYALSNGTVGVYDKTSRYWRIKSKNHAMSIHAFDLNSDGVNELITGWSNGKVDARSDRTGEVIFKDNFSSAIAGVVEGDYRMDGHIQLICCSVDGEIRGYLPGTAEMRGNLMDTSAEQDLIRELSQKKQNLLLELRNYEENAKAELASPLNEADGHRGIIPANTRLHTTLSVSLGNETQTAHTELRISTSNDTIIRAVLIFAEGIFTGESHVVHPSIHNLSSSICIPIVPPKDVPVDLHLKAFVGYRSSTQFHVFESTRQLPRFSMYALTSLDPASEPISYVNFTIAERAQRVVVWLGQNFLLPEDTHIQNAPFQVCFTSLRNGGHLHIKIKLSGEITINTDDIDLAGDIIQSMASFFAIEDLQVEADFPVYFEELRKVLVKVDEYHSVHQKLSADMADHSNLIRSLLVGAEDARLMRDMKTMKSRYMELYDLNRDLLNGYKIRCNNHTELLGNLKAVNQAIQRAGRLRVGKPKNQVITACRDAIRSNNINTLFKIMRVGTASS
partner: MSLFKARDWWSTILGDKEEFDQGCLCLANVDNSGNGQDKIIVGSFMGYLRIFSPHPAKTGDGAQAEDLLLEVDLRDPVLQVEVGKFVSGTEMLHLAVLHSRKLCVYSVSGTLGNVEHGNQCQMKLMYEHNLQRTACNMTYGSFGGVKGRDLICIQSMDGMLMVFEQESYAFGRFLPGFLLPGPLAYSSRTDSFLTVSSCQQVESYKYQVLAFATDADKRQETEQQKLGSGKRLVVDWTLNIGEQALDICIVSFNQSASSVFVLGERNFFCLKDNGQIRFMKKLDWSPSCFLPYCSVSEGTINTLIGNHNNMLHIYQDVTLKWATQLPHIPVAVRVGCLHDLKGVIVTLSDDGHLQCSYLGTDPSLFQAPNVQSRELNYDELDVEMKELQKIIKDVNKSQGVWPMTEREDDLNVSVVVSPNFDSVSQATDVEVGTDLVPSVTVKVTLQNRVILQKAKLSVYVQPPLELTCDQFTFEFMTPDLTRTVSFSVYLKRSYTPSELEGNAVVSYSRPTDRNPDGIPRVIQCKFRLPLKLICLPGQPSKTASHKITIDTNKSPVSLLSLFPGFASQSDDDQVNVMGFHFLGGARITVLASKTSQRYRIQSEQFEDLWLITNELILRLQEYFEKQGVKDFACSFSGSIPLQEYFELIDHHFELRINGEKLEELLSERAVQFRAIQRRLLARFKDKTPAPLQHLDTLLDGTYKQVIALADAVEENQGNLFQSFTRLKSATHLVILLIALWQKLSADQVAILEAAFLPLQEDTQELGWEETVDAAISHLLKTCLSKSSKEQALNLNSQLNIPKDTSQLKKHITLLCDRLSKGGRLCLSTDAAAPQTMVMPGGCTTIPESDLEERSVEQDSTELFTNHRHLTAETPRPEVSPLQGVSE
B2: BBSome complex member BBS4 (Homo sapiens), Q96RK4 (parent)
chain: MAEERVATRTQFPVSTESQKPRQKKAPEFPILEKQNWLIHLHYIRKDYEACKAVIKEQLQETQGLCEYAIYVQALIFRLEGNIQESLELFQTCAVLSPQSADNLKQVARSLFLLGKHKAAIEVYNEAAKLNQKDWEISHNLGVCYIYLKQFNKAQDQLHNALNLNRHDLTYIMLGKIHLLEGDLDKAIEVYKKAVEFSPENTELLTTLGLLYLQLGIYQKAFEHLGNALTYDPTNYKAILAAGSMMQTHGDFDVALTKYRVVACAVPESPPLWNNIGMCFFGKKKYVAAISCLKRANYLAPFDWKILYNLGLVHLTMQQYASAFHFLSAAINFQPKMGELYMLLAVALTNLEDIENAKRAYAEAVHLDKCNPLVNLNYAVLLYNQGEKKNALAQYQEMEKKVSLLKDNSSLEFDSEMVEMAQKLGAALQVGEALVWTKPVKDPKSKHQTTSTSKPASFQQPLGSNQALGQAMSSAAAYRTLPSGAGGTSQFTKPPSLPLEPEPAVESSPTETSEQIREK
partner: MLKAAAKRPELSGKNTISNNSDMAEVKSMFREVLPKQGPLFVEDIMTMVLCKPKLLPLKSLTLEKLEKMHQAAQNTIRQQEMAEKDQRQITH

Variants of: B1
Conditions: with pthb1_human BBS9, Q3SYG4

Variant	effect of a mutation on the interaction
V694E	with no effect
V694K	with no effect
I695A	with no effect
I695E	with no effect
I695K	with no effect
T696A	with no effect
T696E	with no effect
T696K	with no effect
A697E	with no effect
A697K	with no effect
C698A	with no effect
C698E	with no effect
C698K	with no effect
R699A	with no effect
R699E	with no effect
R699K	with no effect
D700A	with no effect
D700E	with no effect
D700K	with no effect
A701E	with no effect
A701K	with no effect
I702A	with no effect
I702E	with no effect
I702K	with no effect
R703A	with no effect
R703E	with no effect
R703K	with no effect

Variant	effect of a mutation on the interaction
S704A	with no effect
S704E	with no effect
S704K	with no effect
N705A	with no effect
N705E	with no effect
N705K	with no effect
N706A	with no effect
N706E	with no effect
N706K	with no effect
I707A	with no effect
I707E	with no effect
I707K	with no effect
N708A	with no effect
N708E	with no effect
N708K	with no effect
T709A	with no effect
T709E	with no effect
T709K	with no effect
L710A	with no effect
L710E	with no effect
L710K	with no effect
F711A	with no effect
F711E	with no effect
F711K	with no effect
K712A	with no effect
K712E	with no effect
I713A	with no effect

Variant	effect of a mutation on the interaction
I713E	with no effect
I713K	with no effect
M714A	with no effect
M714E	with no effect
M714K	with no effect
R715A	with no effect
R715E	with no effect
R715K	with no effect
V716A	with no effect
V716E	with no effect
V716K	with no effect
G717A	with no effect
G717E	with no effect
G717K	with no effect
T718A	with no effect
T718E	with no effect
T718K	with no effect
A719E	with no effect
A719K	with no effect
S720A	with no effect
S720E	with no effect
S720K	with no effect
S721A	with no effect
S721E	with no effect
S721K	with no effect

Variants of: B2
Conditions: with bbip1_human BBIP1, A8MTZ0

Variant	effect of a mutation on the interaction
L327P	disrupting interaction strength
N377Y	disrupting interaction strength

Variants of: B2
Conditions: with bbip1_human BBIP1, A8MTZ0
Remark: another data set of the same source

Variant	effect of a mutation on the interaction
E268A	with no effect
E268K	with no effect
S269A	with no effect
S269E	with no effect
S269K	with no effect
P270A	with no effect
P270E	with no effect
P270K	with no effect
P271A	with no effect
P271E	with no effect
P271K	with no effect
L272A	with no effect
L272E	with no effect
L272K	with no effect
W273A	with no effect
W273E	with no effect
W273K	with no effect
N274A	with no effect
N274E	with no effect
N274K	with no effect
N275A	with no effect
N275E	with no effect
N275K	with no effect
I276A	with no effect
I276E	with no effect
I276K	with no effect

Variant	effect of a mutation on the interaction
G277A	with no effect
G277E	with no effect
G277K	with no effect
M278A	with no effect
M278E	with no effect
M278K	with no effect
M278L	disrupting interaction strength
M278T	disrupting interaction strength
C279A	with no effect
C279E	with no effect
C279K	with no effect
F280A	with no effect
F280E	with no effect
F280K	with no effect
F281A	with no effect
F281E	with no effect
F281K	with no effect
F281S	disrupting interaction strength
G282A	with no effect
G282E	with no effect
G282K	with no effect
K283A	with no effect
K283E	with no effect
K284A	with no effect
K284E	with no effect
K285A	with no effect

Variant	effect of a mutation on the interaction
K285E	with no effect
Y286A	with no effect
Y286E	with no effect
Y286K	with no effect
V287A	with no effect
V287E	with no effect
V287K	with no effect
A288E	with no effect
A288K	with no effect
A289E	with no effect
A289K	with no effect
A289V	disrupting interaction strength
I290A	with no effect
I290E	with no effect
I290K	with no effect
S291A	with no effect
S291E	with no effect
S291K	with no effect
C292A	with no effect
C292E	with no effect
C292K	with no effect
C292R	disrupting interaction strength
L293A	with no effect
L293E	with no effect
L293K	with no effect
K294A	with no effect

Variant	effect of a mutation on the interaction
K294E	with no effect
R295A	with no effect
R295E	with no effect
R295K	with no effect
A296E	with no effect
A296K	with no effect
A296V	disrupting interaction strength
N297A	with no effect
N297E	with no effect
N297K	with no effect
Y298A	with no effect
Y298E	with no effect
Y298K	with no effect
L299A	with no effect
L299E	with no effect
L299K	with no effect
A300E	with no effect
A300K	with no effect
P301A	with no effect
P301E	with no effect
P301K	with no effect
P301L	disrupting interaction strength
P301S	disrupting interaction strength
F302A	with no effect
